Positions count from the first letter of the chain named.

B1: ACTN6: activin A variant peptide, SEQ ID 7 (protein)
chain: GLECDGKVNLCCKKQWFVSFKDIGWNDWIIAPSGYHANRCSGKCPSHIAGTSGSSLSFHSTVINHYRMRGHSPFADMGACCIPTKLRPMSMLYYDDGQNIIKKDIQNMIVEECGCS
modifications: Sytnthetic Construct
B2: ACTN7: activin A variant peptide, SEQ ID 8 (protein)
chain: B1 chain with L10Y, W16H, R39S, K43L, A75S, D76Q, A79S
B3: ACTN8: activin A variant peptide, SEQ ID 9 (protein)
chain: B1 chain with L10Y, W16D, R39K, A75S, A79S, I82V
B4: ACTN9: activin A variant peptide, SEQ ID 10 (protein)
chain: B1 chain with L10Y, W16D, R39K, S41T, M77L
B5: ACTN74: activin A variant peptide, SEQ ID 75 (protein)
chain: GLECDGKVNICCKKQSFGRAKDIGWNDWIIAPSGYHGGGCTGECPSHIAGTSGSSLSFHSTVINHYRMRGHSPFANLKSCCSPTKLRPMSMLYYDDGQNIIKKDIQGMVVEECGCT
B6: ACTN65: activin A variant peptide, SEQ ID 66 (protein)
chain: B5 chain with R19Q, A20T, G39S, T41S, V109K
B7: ACTN81: activin A variant peptide, SEQ ID 82 (protein)
chain: B5 chain with S16L, R19K, A20T, F74V, G107R
B8: ACTN94: activin A variant peptide, SEQ ID 95 (protein)
chain: B5 chain with R19Q, F74W, G107R, V110A
B9: ACTN78: activin A variant peptide, SEQ ID 79 (protein)
chain: B5 chain with S16L, R19Q, T41S, F74V, G107N
B10: ACTN91: activin A variant peptide, SEQ ID 92 (protein)
chain: B5 chain with A20T, T41S, F74W, G107N
B11: ACTN51: activin A variant peptide, SEQ ID 52 (protein)
chain: B5 chain with R19Q, A20T, T41S, G107R
B12: ACTN56: activin A variant peptide, SEQ ID 57 (protein)
chain: B5 chain with R19Q, G39S, S82A, G107N, T116V
B13: ACTN77: activin A variant peptide, SEQ ID 78 (protein)
chain: B5 chain with S16M, R19K, F74W, G107N
B14: ACTN50: activin A variant peptide, SEQ ID 51 (protein)
chain: B5 chain with S16L, A20T, T41S, F74V, G107N, V109K
B15: ACTN69: activin A variant peptide, SEQ ID 70 (protein)
chain: B5 chain with R19K, A20T, G107Q
B16: ACTN13: activin A variant peptide, SEQ ID 14 (protein)
chain: B1 chain with W16D, R39K, A75S, A79S
B17: ACTN36: activin A variant peptide, SEQ ID 37 (protein)
chain: B1 chain with W16D, D76N, I82V
B18: ACTN40: activin A variant peptide, SEQ ID 41 (protein)
chain: B1 chain with W16L, R39H, S41A, K43L, A75S, D76N, A79S, I82V
B19: ACTN46: activin A variant peptide, SEQ ID 47 (protein)
chain: B1 chain with W16N, R39E, S41G, K43L, F74H, D76N, M77R
B20: ACTN49: activin A variant peptide, SEQ ID 50 (protein)
chain: B1 chain with W16D, S41D, K43L, A75S, A79S, I82V
B21: ACTN15: activin A variant peptide, SEQ ID 16 (protein)
chain: B1 chain with W16D, K43L, A75S, D76N, A79S

The test system of the first assay is H1 or H9 human embryonic stem cells. The experiment in a line: Activin A bioassay: differentiation of human embryonic stem cells to definitive endoderm, cell number and SOX17 intensity by high content analysis (96-well, four days).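 As to Cell Number average: Raw total cell count per well from high content imaging.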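 As to Sox 17 Intensity average: total fluorescence of the cell multiplied by cell area.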 Format: cell-based. The conditions noted are these: supernatant concentration 1x, assay dilution 1:20. The procedure, abridged: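 Read-out was cell count and integrated SOX17 immunofluorescence by high-content imaging, with each well divided by the mean of the 100 ng/ml activin A control. Over the four-day culture, test samples were given in DMEM:F12 with 0.5% FCS plus 20 ng/ml Wnt3a for the first two days and in 2% FCS alone for the last two. Cells were H1 or H9 hESC clusters grown on Matrigel.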
Regarding B1, the “Cell Number average” value was determined as 939 and the “Sox 17 Intensity average” value came out at 1.234E+07.

For B2, the “Cell Number average” value was 1133 and the “Sox 17 Intensity average” value was 1.108E+07.

B3: the “Cell Number average” value came out at 363 and the “Sox 17 Intensity average” value was determined as 5.578E+06.

As for B4, the “Cell Number average” value is 11391 and the “Sox 17 Intensity average” value worked out at 5.97E+05.

The same assay, now with this note: supernatant concentration 1x, assay dilution 1:20; control = R&D Sys Activin A 100 ng/ml on same plate.
B1: the “Sox 17 Intensity % of control” value came out at 6.7%.

With B2, the “Sox 17 Intensity % of control” value was 6.0%.

Consider B3, for which the “Sox 17 Intensity % of control” value is given as 3.0%.

In the case of B4, the “Sox 17 Intensity % of control” value is 2.3%.

Still in this assay, the particulars now being: supernatant concentration 10x, assay dilution 1:20.
On to B1, for which the “Cell Number average” value stood at 2359 and the “Sox 17 Intensity average” value was 2.272E+07.

With B2, the “Cell Number average” value amounted to 2714 and the “Sox 17 Intensity average” value is 1.904E+07.

B3: the “Cell Number average” value amounted to 1419 and the “Sox 17 Intensity average” value was found to be 1.181E+07.

Turning to B4, the “Cell Number average” value was 11456 and the “Sox 17 Intensity average” value stood at 6.63E+05.

The assay is the same for the next values; noted with them: supernatant concentration 10x, assay dilution 1:20; assay plates #007, #009, #010.
As to B5, the “Cell Number average” value was determined as 15049 and the “Sox 17 Intensity average” value stood at 3.30E+06.

On to B6, for which the “Cell Number average” value is recorded as 22058 and the “Sox 17 Intensity average” value is reported as 3.23E+07.

Consider B7, for which the “Cell Number average” value came out at 19897 and the “Sox 17 Intensity average” value is listed as 1.60E+07.

For the molecule B8, the “Cell Number average” value was found to be 20142 and the “Sox 17 Intensity average” value was 1.51E+07.

As for B9, the “Cell Number average” value turned out to be 12585 and the “Sox 17 Intensity average” value was 1.11E+06.

Take B10: the “Cell Number average” value came out at 17043 and the “Sox 17 Intensity average” value stood at 1.12E+07.

For B11, the “Cell Number average” value was determined as 21780 and the “Sox 17 Intensity average” value is 1.85E+07.

Regarding B12, the “Cell Number average” value amounted to 23413 and the “Sox 17 Intensity average” value was 2.79E+07.

Consider B13, for which the “Cell Number average” value amounted to 17696 and the “Sox 17 Intensity average” value was determined as 2.82E+07.

On to B14, for which the “Cell Number average” value worked out at 22171 and the “Sox 17 Intensity average” value is recorded as 1.72E+07.

Take B15: the “Cell Number average” value worked out at 20178 and the “Sox 17 Intensity average” value was 2.73E+07.

For the molecule B16, the “Cell Number average” value worked out at 19861 and the “Sox 17 Intensity average” value is given as 2.78E+07.

As to B17, the “Cell Number average” value worked out at 24664 and the “Sox 17 Intensity average” value was found to be 2.60E+07.

Turning to B18, the “Cell Number average” value turned out to be 11321 and the “Sox 17 Intensity average” value is 1.21E+08.

In the case of B19, the “Cell Number average” value amounted to 20757 and the “Sox 17 Intensity average” value stood at 1.99E+07.

Regarding B20, the “Cell Number average” value was 10076 and the “Sox 17 Intensity average” value was 1.60E+07.

In the case of B21, the “Cell Number average” value is reported as 22700 and the “Sox 17 Intensity average” value is 2.89E+07.

Still in this assay, the particulars now being: supernatant concentration 10x, assay dilution 1:20; control = R&D Sys Activin A 100 ng/ml on same plate.
Take B5: the “Sox 17 Intensity % of control” value came to 13.2%.

Regarding B6, the “Sox 17 Intensity % of control” value turned out to be 22.9%.

On to B7, for which the “Sox 17 Intensity % of control” value worked out at 11.4%.

On to B8, for which the “Sox 17 Intensity % of control” value was found to be 10.7%.

B9: the “Sox 17 Intensity % of control” value was 4.4%.

On to B10, for which the “Sox 17 Intensity % of control” value is recorded as 7.9%.

As for B11, the “Sox 17 Intensity % of control” value stood at 13.1%.

Take B12: the “Sox 17 Intensity % of control” value is listed as 19.8%.

Turning to B13, the “Sox 17 Intensity % of control” value was found to be 20.0%.

Consider B14, for which the “Sox 17 Intensity % of control” value worked out at 12.2%.

On to B15, for which the “Sox 17 Intensity % of control” value was 19.4%.

On to B16, for which the “Sox 17 Intensity % of control” value was 19.7%.

Turning to B1, the “Sox 17 Intensity % of control” value was 12.4%.

Take B17: the “Sox 17 Intensity % of control” value worked out at 18.4%.

For the molecule B18, the “Sox 17 Intensity % of control” value is reported as 85.6%.

B2: the “Sox 17 Intensity % of control” value came to 10.4%.

Turning to B19, the “Sox 17 Intensity % of control” value worked out at 14.1%.

For the molecule B20, the “Sox 17 Intensity % of control” value is on record as 11.3%.

As to B3, the “Sox 17 Intensity % of control” value turned out to be 6.4%.

In the case of B21, the “Sox 17 Intensity % of control” value was found to be 20.5%.

Consider B4, for which the “Sox 17 Intensity % of control” value stood at 2.6%.

The assay is the same for the next values; noted with them: supernatant concentration 10x, assay dilution 1:40.
With B1, the “Cell Number average” value stood at 1790 and the “Sox 17 Intensity average” value is 1.426E+07.

Regarding B2, the “Cell Number average” value came to 1387 and the “Sox 17 Intensity average” value worked out at 1.099E+07.

As to B3, the “Cell Number average” value is reported as 372 and the “Sox 17 Intensity average” value is 3.869E+06.

On to B4, for which the “Cell Number average” value came out at 9608 and the “Sox 17 Intensity average” value amounted to 4.19E+05.

Staying with this assay, now noted: supernatant concentration 10x, assay dilution 1:40; control = R&D Sys Activin A 100 ng/ml on same plate.
For the molecule B1, the “Sox 17 Intensity % of control” value is listed as 7.8%.

In the case of B2, the “Sox 17 Intensity % of control” value is 6.0%.

B3: the “Sox 17 Intensity % of control” value amounted to 2.1%.

As to B4, the “Sox 17 Intensity % of control” value stood at 1.6%.

Staying with this assay, now noted: supernatant concentration 50x, assay dilution 1:20; assay plates #008, #009.
In the case of B5, the “Cell Number average” value is 16143 and the “Sox 17 Intensity average” value came to 1.03E+07.

Consider B9, for which the “Cell Number average” value turned out to be 16301 and the “Sox 17 Intensity average” value is given as 5.64E+06.

The same assay, now with this note: supernatant concentration 50x, assay dilution 1:20; control = R&D Sys Activin A 100 ng/ml on same plate.
For B5, the “Sox 17 Intensity % of control” value is on record as 41.3%.

For the molecule B9, the “Sox 17 Intensity % of control” value was determined as 22.6%.

The values above are taken from patent US20110091971A1, “Differentiation of Pluripotent Stem Cells” (priority 2008, published 2011).
